System: COc1ccccc1O
Test: purified protein
Conditions: H2O2 (0.2 mM in methods, ~20 μM in table note), 50 mM sodium phosphate pH 7.0, 20 °C, guaiacol varied 0.08-2.5 mM as printed

“rCsMb (CsMb, Clonorchis sinensis myoglobin) (Clonorchis sinensis)” showed a Km of 81 mM.
